Experimental data published in paper PMC3540207 (Nature structural & molecular biology, 2012).

Biological target: ATG3 (human, recombinant) (human, UniProt Q9NT62 1-314)
Assay: ITC

Chain of ATG3 (human, recombinant) (Q9NT62 whole entry): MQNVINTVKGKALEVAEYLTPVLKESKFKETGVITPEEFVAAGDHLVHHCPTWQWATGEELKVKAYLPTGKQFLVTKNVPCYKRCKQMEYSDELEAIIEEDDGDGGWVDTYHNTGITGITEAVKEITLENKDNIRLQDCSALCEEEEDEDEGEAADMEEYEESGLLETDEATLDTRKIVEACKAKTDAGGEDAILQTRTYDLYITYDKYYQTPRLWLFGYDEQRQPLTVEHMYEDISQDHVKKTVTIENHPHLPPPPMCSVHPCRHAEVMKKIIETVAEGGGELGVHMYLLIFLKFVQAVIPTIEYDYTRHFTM

Kd: 117 nM
B1: unconjugated ATG12 (human, recombinant) (natural protein, UniProt O94817 1-140, looked up)
chain: MAEEPQSVLQLPTSIAAGGEGLTDVSPETTTPEPPSSAAVSPGTEEPAGDTKKKIDILLKAVGDTPIMKTKKWAVERTRTIQGLIDFIKKFLKLVASEQLFIYVNQSFAPSPDQEVGTLYECFGSDGKLVLHYCKSQAWG
